Data as given in US10239925B2, “Peptides and combination of peptides for use in immunotherapy against ovarian cancer and other cancers” (IMMATICS BIOTECHNOLOGIES GMBH, priority 2015, dated 2019).

Molecular target: HLA-A*02:01 (Homo sapiens, UniProt P04439, D140Y/D185E/D98H/E176V/E277Q/G131W/G231S/I119V/I121R/I166T/I218V/L300P/L318F/N151K/N90K/P208A/P217A/Q86G/Q94H/R138H/R169H/T345S)
Test: MHC binding assay (UV-ligand exchange, anti-β2m ELISA, peptide exchange yield)
Conditions: binding to HLA-A*02:01
Outline: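 Yield of stabilized complexes quantified via the β2m light chain in an ELISA (streptavidin capture, 100-fold diluted monomers, HRP anti-β2m 2 ug/ml at 37 °C, TMB, A450). The complexes come from UV-triggered replacement of a photocleavable ligand by the candidate peptide.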

Peptide exchange (MHC class I binding score, peptide exchange yield)	Substance
“+++” (>50 = +++)	593 (GLPRFGIEMV; listed as Homo sapiens) [compound 593]
“++” (>20% = ++)	127 (KIGDEPPKV; listed as Homo sapiens) [compound 127]
“++++” (>75% = ++++)	104 (STMEQNFLL; listed as Homo sapiens) [compound 104]
“+++” (>50 = +++)	623 (YLVEDIQHI; listed as Homo sapiens) [compound 623]
“+++” (>50 = +++)	519 (GLLHLTLLL; listed as Homo sapiens) [compound 519]
“+++” (>50 = +++)	609 (ALWKQLLEL; listed as Homo sapiens) [compound 609]
“+++” (>50 = +++)	160 (FLFDEEIEQI; listed as Homo sapiens) [compound 160]
“+++” (>50 = +++)	598 (FLFPHSVLV; listed as Homo sapiens) [compound 598]
“++” (>20% = ++)	524 (ALIENLTHQI; listed as Homo sapiens) [compound 524]
“++” (>20% = ++)	81 (FLFSQLQYL; listed as Homo sapiens) [compound 81]
“+++” (>50 = +++)	171 (LLLPLQILL; listed as Homo sapiens) [compound 171]
“+++” (>50 = +++)	76 (ILIDSIYKV; listed as Homo sapiens) [compound 76]
“+++” (>50 = +++)	601 (SAFPFPVTV; listed as Homo sapiens) [compound 601]
“++” (>20% = ++)	251 (ALYTGFSILV; listed as Homo sapiens) [compound 251]
“++” (>20% = ++)	146 (SLATAGDGLIEL; listed as Homo sapiens) [compound 146]
“+++” (>50 = +++)	241 (SLVEVNPAYSV; listed as Homo sapiens) [compound 241]
“++” (>20% = ++)	84 (VTFGEKLLGV; listed as Homo sapiens) [compound 84]
“+++” (>50 = +++)	525 (VLLEAGEGLVTI; listed as Homo sapiens) [compound 525]
“++++” (>75% = ++++)	53 (KMIETDILQKV; listed as Homo sapiens) [compound 53]
“++” (>20% = ++)	375 (SLTETIEGV; listed as Homo sapiens) [compound 375]
“++” (>20% = ++)	186 (TLFFQQNAL; listed as Homo sapiens) [compound 186]

Peptide exchange (MHC class I binding score, peptide exchange yield)	Substance
“+++” (>50 = +++)	158 (KLFDVDEDGYI; listed as Homo sapiens) [compound 158]
“+++” (>50 = +++)	604 (SILDRDDIFV; listed as Homo sapiens) [compound 604]
“++” (>20% = ++)	400 (SLLTEQDLWTV; listed as Homo sapiens) [compound 400]
“+++” (>50 = +++)	344 (YLQDQHLLLTV; listed as Homo sapiens) [compound 344]
“+++” (>50 = +++)	436 (HLAEVSAEV; listed as Homo sapiens) [compound 436]
“++” (>20% = ++)	115 (AIAGAGILYGV; listed as Homo sapiens) [compound 115]
“++” (>20% = ++)	231 (FLSPQQPPLLL; listed as Homo sapiens) [compound 231]
“++” (>20% = ++)	207 (GLTSTNAEV; listed as Homo sapiens) [compound 207]
“++” (>20% = ++)	210 (LLLNAVLTV; listed as Homo sapiens) [compound 210]
“+++” (>50 = +++)	369 (GLFPEHLIDV; listed as Homo sapiens) [compound 369]
“+++” (>50 = +++)	365 (YVIDQGETDVYV; listed as Homo sapiens) [compound 365]
“+++” (>50 = +++)	23 (VLLDDIFAQL; listed as Homo sapiens) [compound 23]
“+++” (>50 = +++)	444 (GLLRDEALAEV; listed as Homo sapiens) [compound 444]
“++” (>20% = ++)	140 (YMDAPKAAL; listed as Homo sapiens) [compound 140]
“+++” (>50 = +++)	596 (ALLDQTKTLAESAL; listed as Homo sapiens) [compound 596]
“++” (>20% = ++)	333 (FLPDANSSV; listed as Homo sapiens) [compound 333]
“+++” (>50 = +++)	202 (ALLDQQGSRWTL; listed as Homo sapiens) [compound 202]
“+++” (>50 = +++)	635 (SLDSTLHAV; listed as Homo sapiens) [compound 635]
“++” (>20% = ++)	217 (ALIHPVSTV; listed as Homo sapiens) [compound 217]
“+++” (>50 = +++)	6 (VLVSDGVHSV; listed as Homo sapiens) [compound 6]
“++” (>20% = ++)	9 (GAAKDLPGV; listed as Homo sapiens) [compound 9]

Peptide exchange (MHC class I binding score, peptide exchange yield)	Substance
“++” (>20% = ++)	429 (GLVNDLARV; listed as Homo sapiens) [compound 429]
“+++” (>50 = +++)	430 (HLYSSIEHLTT; listed as Homo sapiens) [compound 430]
“+++” (>50 = +++)	287 (FLNEFFLNV; listed as Homo sapiens) [compound 287]
“+++” (>50 = +++)	331 (KVDTVWVNV; listed as Homo sapiens) [compound 331]
“+++” (>50 = +++)	82 (FLSSVTYNL; listed as Homo sapiens) [compound 82]
“++” (>20% = ++)	128 (YLFDDPLSAV; listed as Homo sapiens) [compound 128]
“++++” (>75% = ++++)	235 (YLNDLHEVLL; listed as Homo sapiens) [compound 235]
“++” (>20% = ++)	392 (ALLHPQGFEV; listed as Homo sapiens) [compound 392]
“+++” (>50 = +++)	252 (LLIGTDVSL; listed as Homo sapiens) [compound 252]
“+++” (>50 = +++)	618 (VLFDSESIGIYV; listed as Homo sapiens) [compound 618]
“++” (>20% = ++)	226 (MLYVVPIYL; listed as Homo sapiens) [compound 226]
“+++” (>50 = +++)	224 (TLIDAQWVL; listed as Homo sapiens) [compound 224]
“+++” (>50 = +++)	201 (RLVDYLEGI; listed as Homo sapiens) [compound 201]
“++” (>20% = ++)	270 (LLLDEEGTFSL; listed as Homo sapiens) [compound 270]
“++” (>20% = ++)	80 (FLYDNLVESL; listed as Homo sapiens) [compound 80]
“++++” (>75% = ++++)	611 (YLLDDGTLVV; listed as Homo sapiens) [compound 611]
“++++” (>75% = ++++)	620 (KLLNKIYEA; listed as Homo sapiens) [compound 620]
“++” (>20% = ++)	233 (VLSETLYEL; listed as Homo sapiens) [compound 233]
“+++” (>50 = +++)	236 (GLLEAKVSL; listed as Homo sapiens) [compound 236]
